Measurements taken from patent US6319685A (Unigene Laboratories, Inc., priority 1987, dated 2001).

Key:
[1] = specific alpha-amidating activity, conversion of Dansyl-D-Tyr-Val-Gly to Dansyl-D-Tyr-Val-CONH2; assay type: biochemical; conditions: CA-77 media
Procedure: These and other objects will become apparent from a thorough reading of the present disclosure. […] All specific activity units set forth herein are based upon the conversion of Dansyl-D-Try-Val-Gly-COOH to Dansyl-D-Tyr-Val-CONH2. One mU is defined as the amount of activity needed to convert one nanomole (nmole) of Dansyl-D-Tyr-Val-Gly-COOH to one nmole of Dansyl-D-Tyr-Val-CONH2 per minute at 37° C. and pH 7.0 in the presence of ascorbate ions at a concentration of 3 mM (based on total reaction mixture including enzyme, substrate, co-factors, etc.), molecular oxygen in a molar excess over substrate and a concentration of cupric ions effective to maximize activity (usually about 2 μM depending on the state of purity of the enzyme).
Each purification step can be monitored for both protein content and the level of alpha-amidation activity. This information is used to calculate the specific activity of the enzyme which serves as an indicator of the relative purity of the enzyme.
Sephacryl S-300 (Pharmacia) was equilibrated in 50 mM Tris HCl pH 7.0 and poured into a K 50/100 column (Pharmacia) according to the manufacturer's instructions. The bed volume of the column was approximately 1.3 liters. The Sample was loaded onto the column in a volume representing approximately 3 percent of the bed volume of the column. Proteins were eluted from the column in 50 mM Tris HCl pH 7.0 at a flow rate of approximately 2 ml per minute.
The reaction mixture for the conversion of the monodansyl substrate contained:
The samples were prepared in duplicate and incubated at 37° C. for 10, 20 and 30 minutes time periods. The enzymatic reaction was halted by the addition of 10 ul 500 mM EDTA.

[2] = nonspecific proteolytic activity of enzyme preparation; assay type: biochemical; conditions: CA-77 media, after DEAE and Sephacryl 300-SF

nonspecific proteolytic activity [2]: free of nonspecific proteolytic activity
B1: alpha-amidating enzyme (CA-77): alpha-amidating enzyme derived from CA-77 cell tissue culture media (protein, UniProt P14925 36-976, looked up)
Peptidylglycine …: FKETTRSFSNECLGTIGPVTPLDASDFALDIRMPGVTPKESDTYFCMSMRLPVDEEAFVIDFKPRASMDTVHHMLLFGCNMPSSTGSYWFCDEGTCTDKANILYAWARNAPPTRLPKGVGFRVGGETGSKYFVLQVHYGDISAFRDNHKDCSGVSVHLTRVPQPLIAGMYLMMSVDTVIPPGEKVVNADISCQYKMYPMHVFAYRVHTHHLGKVVSGYRVRNGQWTLIGRQNPQLPQAFYPVEHPVDVTFGDILAARCVFTGEGRTEATHIGGTSSDEMCNLYIMYYMEAKYALSFMTCTKNVAPDMFRTIPAEANIPIPVKPDMVMMHGHHKEAENKEKSALMQQPKQGEEEVLEQGDFYSLLSKLLGEREDVHVHKYNPTEKTESGSDLVAEIANVVQKKDLGRSDAREGAEHEEWGNAILVRDRIHRFHQLESTLRPAESRAFSFQQPGEGPWEPEPSGDFHVEEELDWPGVYLLPGQVSGVALDSKNNLVIFHRGDHVWDGNSFDSKFVYQQRGLGPIEEDTILVIDPNNAEILQSSGKNLFYLPHGLSIDTDGNYWVTDVALHQVFKLDPHSKEGPLLILGRSMQPGSDQNHFCQPTDVAVEPSTGAVFVSDGYCNSRIVQFSPSGKFVTQWGEESSGSSPRPGQFSVPHSLALVPHLDQLCVADRENGRIQCFKTDTKEFVREIKHASFGRNVFAISYIPGFLFAVNGKPYFGDQEPVQGFVMNFSSGEIIDVFKPVRKHFDMPHDIVASEDGTVYIGDAHTNTVWKFTLTEKMEHRSVKKAGIEVQEIKEAEAVVEPKVENKPTSSELQKMQEKQKLSTEPGSGVSVVLITTLLVIPVLVLLAIVMFIRWKKSRAFGDHDRKLESSSGRVLGRFRGKGSGGLNLGNFFASRKGYSRKGFDRVSTEGSDQEKDEDDGTESEEEYSAPLPKPAPSS
activity ([1]; after DEAE and Sephacryl 300-SF): at least 50 mU/mg protein | specific activity ([1]; fractions from DEAE weak anion exchange cartridge): 10-15 mU/mg
